These results are taken from paper PMC4428678.

The Kd is the equilibrium constant for the complex coming apart. Higher therefore signals a looser complex.

The experiment addresses His-tagged human CRMP-2 (residues 1-490) (human) (UniProt Q16555). Description: SPR.

With “Recombinant human calmodulin (from UniProt P0DP23 1-149) (natural protein)”, the Kd came out at 75 µM.
